In patent US8586570:

Test system: PKCα-S10

Row | Protein | phosphorylation activity (1 µM peptide, 2 ng kinase)
1 | PKCµ (enzyme, UniProt Q15139 1-912, looked up, species assumed) Serine/threonine-protein kinase D1: MSAPPVLRPPSPLLPVAAAAAAAAAALVPGSGPGPAPFLAPVAAPVGGISFHLQIGLSREPVLLLQDSSGDYSLAHVREMACSIVDQKFPECGFYGMYDKILLFRHDPTSENILQLVKAASDIQEGDLIEVVLSASATFEDFQIRPHALFVHSYRAPAFCDHCGEMLWGLVRQGLKCEGCGLNYHKRCAFKIPNNCSGVRRRRLSNVSLTGVSTIRTSSAELSTSAPDEPLLQKSPSESFIGREKRSNSQSYIGRPIHLDKILMSKVKVPHTFVIHSYTRPTVCQYCKKLLKGLFRQGLQCKDCRFNCHKRCAPKVPNNCLGEVTINGDLLSPGAESDVVMEEGSDDNDSERNSGLMDDMEEAMVQDAEMAMAECQNDSGEMQDPDPDHEDANRTISPSTSNNIPLMRVVQSVKHTKRKSSTVMKEGWMVHYTSKDTLRKRHYWRLDSKCITLFQNDTGSRYYKEIPLSEILSLEPVKTSALIPNGANPHCFEITTANVVYYVGENVVNPSSPSPNNSVLTSGVGADVARMWEIAIQHALMPVIPKGSSVGTGTNLHRDISVSISVSNCQIQENVDISTVYQIFPDEVLGSGQFGIVYGGKHRKTGRDVAIKIIDKLRFPTKQESQLRNEVAILQNLHHPGVVNLECMFETPERVFVVMEKLHGDMLEMILSSEKGRLPEHITKFLITQILVALRHLHFKNIVHCDLKPENVLLASADPFPQVKLCDFGFARIIGEKSFRRSVVGTPAYLAPEVLRNKGYNRSLDMWSVGVIIYVSLSGTFPFNEDEDIHDQIQNAAFMYPPNPWKEISHEAIDLINNLLQVKMRKRYSVDKTLSHPWLQDYQTWLDLRELECKIGERYITHESDDLRWEKYAGEQGLQYPTHLINPSASHSDTPETEETEMKALGERVSIL | no activity is observed with PKCδ, PKCµ, and PKCν
2 | PKCζ (enzyme, UniProt Q05513 1-592, looked up, species assumed) Protein kinase C zeta type: MPSRTGPKMEGSGGRVRLKAHYGGDIFITSVDAATTFEELCEEVRDMCRLHQQHPLTLKWVDSEGDPCTVSSQMELEEAFRLARQCRDEGLIIHVFPSTPEQPGLPCPGEDKSIYRRGARRWRKLYRANGHLFQAKRFNRRAYCGQCSERIWGLARQGYRCINCKLLVHKRCHGLVPLTCRKHMDSVMPSQEPPVDDKNEDADLPSEETDGIAYISSSRKHDSIKDDSEDLKPVIDGMDGIKISQGLGLQDFDLIRVIGRGSYAKVLLVRLKKNDQIYAMKVVKKELVHDDEDIDWVQTEKHVFEQASSNPFLVGLHSCFQTTSRLFLVIEYVNGGDLMFHMQRQRKLPEEHARFYAAEICIALNFLHERGIIYRDLKLDNVLLDADGHIKLTDYGMCKEGLGPGDTTSTFCGTPNYIAPEILRGEEYGFSVDWWALGVLMFEMMAGRSPFDIITDNPDMNTEDYLFQVILEKPIRIPRFLSVKASHVLKGFLNKDPKERLGCRPQTGFSDIKSHAFFRSIDWDLLEKKQALPPFQPQITDDYGLDNFDTQFTSEPVQLTPDDEDAIKRIDQSEFEGFEYINPLLLSTEESV | very little activity is detected with PKCε, PKCζ, PKCη and PKCι
3 | PKCι (enzyme, UniProt P41743 2-596, looked up, species assumed) Protein kinase C iota type: PTQRDSSTMSHTVAGGGSGDHSHQVRVKAYYRGDIMITHFEPSISFEGLCNEVRDMCSFDNEQLFTMKWIDEEGDPCTVSSQLELEEAFRLYELNKDSELLIHVFPCVPERPGMPCPGEDKSIYRRGARRWRKLYCANGHTFQAKRFNRRAHCAICTDRIWGLGRQGYKCINCKLLVHKKCHKLVTIECGRHSLPQEPVMPMDQSSMHSDHAQTVIPYNPSSHESLDQVGEEKEAMNTRESGKASSSLGLQDFDLLRVIGRGSYAKVLLVRLKKTDRIYAMKVVKKELVNDDEDIDWVQTEKHVFEQASNHPFLVGLHSCFQTESRLFFVIEYVNGGDLMFHMQRQRKLPEEHARFYSAEISLALNYLHERGIIYRDLKLDNVLLDSEGHIKLTDYGMCKEGLRPGDTTSTFCGTPNYIAPEILRGEDYGFSVDWWALGVLMFEMMAGRSPFDIVGSSDNPDQNTEDYLFQVILEKQIRIPRSLSVKAASVLKSFLNKDPKERLGCHPQTGFADIQGHPFFRNVDWDMMEQKQVVPPFKPNISGEFGLDNFDSQFTNEPVQLTPDDDDIVRKIDQSEFEGFEYINPLLMSAEECV | very little activity is detected with PKCε, PKCζ, PKCη and PKCι
4 | PKCν (enzyme, UniProt O94806 1-890, looked up, species assumed) Serine/threonine-protein kinase D3: MSANNSPPSAQKSVLPTAIPAVLPAASPCSSPKTGLSARLSNGSFSAPSLTNSRGSVHTVSFLLQIGLTRESVTIEAQELSLSAVKDLVCSIVYQKFPECGFFGMYDKILLFRHDMNSENILQLITSADEIHEGDLVEVVLSALATVEDFQIRPHTLYVHSYKAPTFCDYCGEMLWGLVRQGLKCEGCGLNYHKRCAFKIPNNCSGVRKRRLSNVSLPGPGLSVPRPLQPEYVALPSEESHVHQEPSKRIPSWSGRPIWMEKMVMCRVKVPHTFAVHSYTRPTICQYCKRLLKGLFRQGMQCKDCKFNCHKRCASKVPRDCLGEVTFNGEPSSLGTDTDIPMDIDNNDINSDSSRGLDDTEEPSPPEDKMFFLDPSDLDVERDEEAVKTISPSTSNNIPLMRVVQSIKHTKRKSSTMVKEGWMVHYTSRDNLRKRHYWRLDSKCLTLFQNESGSKYYKEIPLSEILRISSPRDFTNISQGSNPHCFEIITDTMVYFVGENNGDSSHNPVLAATGVGLDVAQSWEKAIRQALMPVTPQASVCTSPGQGKDHKDLSTSISVSNCQIQENVDISTVYQIFADEVLGSGQFGIVYGGKHRKTGRDVAIKVIDKMRFPTKQESQLRNEVAILQNLHHPGIVNLECMFETPERVFVVMEKLHGDMLEMILSSEKSRLPERITKFMVTQILVALRNLHFKNIVHCDLKPENVLLASAEPFPQVKLCDFGFARIIGEKSFRRSVVGTPAYLAPEVLRSKGYNRSLDMWSVGVIIYVSLSGTFPFNEDEDINDQIQNAAFMYPPNPWREISGEAIDLINNLLQVKMRKRYSVDKSLSHPWLQDYQTWLDLREFETRIGERYITHESDDARWEIHAYTHNLVYPKHFIMAPNPDDMEEDP | no activity is observed with PKCδ, PKCµ, and PKCν
